# From the supplement of paper PMC9170038
# System: MS2 coat protein
# Experiment: apparent KD of MS2 coat protein; designed switch direction (-1 OFF switch, 1 ON switch): 1; higher = weaker reporter binding
# Method in brief: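 The apparent KD reported per design is the median over clusters of curve fits to normalised cluster fluorescence. The RNA switches were transcribed on Illumina chips by stalled E. coli RNA polymerase. SNAP-549-labelled MS2 coat protein was titrated from 0.7 or 1.5 nM, doubling up to 3 µM, in Tris-HCl pH 7.5 buffer containing KCl, MgCl2, BSA, DTT, tRNA and Tween-20, with no input, 200 uM small-molecule ligand, or an oligonucleotide input.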
# [1] = Eterna round: R95, input ligand: FMN 200 uM
# [2] = Eterna round: R95, input ligand: microRNA oligo, concentration not stated
# [3] = Eterna round: R95, input ligand: none
# [4] = input ligand: microRNA oligo, concentration not stated
Sequence,apparent KD of MS2 coat protein [1] [nM],apparent KD of MS2 coat protein [2] [nM],apparent KD of MS2 coat protein [3] [nM],apparent KD of MS2 coat protein (input ligand: FMN 200 uM) [nM],apparent KD of MS2 coat protein [4] [nM],apparent KD of MS2 coat protein (input ligand: none) [nM]
AGUCCAGCGAAAGCUGGACAAAAGCGUGUACAUGAGGAUCACCCAUGUUCAUGUACAAGCUUUUUGCUCGUCUUAAA [JL mod - D95 - 6] (puzzle: Sensor for hsa-mir-208a),30.7,17.3,96.2,,,
AGUCGAGCCUGAGCUCGACAAAAGCAUGUACAUGAGGAUCACCCAUGUCAUGUACAAGCUUUUUGCUCGUCUUAAAA [Mat - hsa-mir-208a - Mod of JL - D19] (puzzle: Sensor for hsa-mir-208a),238,13.5,264,,,
"AGUGGAGCCUGAGCUCCACAAAAGCAUGUACAUGAGGAUCACCCAUGUCAUGUACAAGCUUUUUGCUCGUCUUAAAA [Mat - hsa-mir-208a - Mod of JL - D18] (Eterna round: R96, puzzle: Sensor for hsa-mir-208a)",,,,552,14,502
AGUGGAGCCUGAGCUCCACAAAAGCAUGUACAUGAGGAUCACCCAUGUCAUGUACAAGCUUUUUGCUCGUCUUAAAA [Mat - hsa-mir-208a - Mod of JL - D18] (puzzle: Sensor for hsa-mir-208a),536,18.8,423,,,
AUAAAACAUGAGGAUCACCCAUGUCAACAAAGUCGAGGAUAUGGGCAAAGAAAAGAAUAACCAGAAGGCGAAUAAU [salish99_ss1_r3_055] (puzzle: Same State 1),51.5,315,316,,,
AUAAAACAUGAGGAUCACCCAUGUCUCUAAAGUCGAGGAUAUGGGCAAAUAAUAUAAGAACCAGAAGGCGAAUAAU [SS1 Teenbexe 3] (puzzle: Same State 1),58.1,51.2,530,,,
"AUAACAAUGGCAGGAUAUGGGAUUGGAAGUGUUCCAGAAGGGCCAUAACGGCGAUGGACAUGAGGAUCACCCAUGUCUUAGCCU [MOD2 Powerstrip SSNG 1.4] (Eterna round: R96, puzzle: Same State NG 1)",,,,14.3,6.26,15
AUAAGUUCGAUGCUCGUCUCUCCGUACAAACAUGAGGAUCACCCAUGUGACUGGGCAAUAGCCCAAUCAGUAUGGCC [Beongetiqu] (puzzle: Sensor for hsa-mir-208a),34.8,22.8,34.4,,,
AUAAGUUUGAUGCUCGUCUCUCCGUACAAACAUGAGGAUCACCCAUGUGGUCGGGAAGUAGCCCGGCCAGUAUGACC [Rigebelain] (puzzle: Sensor for hsa-mir-208a),32.7,24.4,35.2,,,
"AUACAUAUCAGAGGAUAUCACGUCGUUUAGACGUGAGAAGGCUGAUCACACAUGAAUAUUAAUACAUGAGGAUCACCCAUGUAU [SSNG1/14-A3] (Eterna round: R96, puzzle: Same State NG 1)",,,,13.7,13.4,20.9
"AUAGUUGCCGAAGGAUAUGAUGAGGAUCACCCAUCAGAAGGUCGGCUAUUGGGUGGACAUGAGGAUCACCCGUGUUCUUUGGUC (Eterna round: R96, puzzle: Same State NG 1)",,,,30.6,22.5,32.3
"AUAGUUGCCGAAGGAUAUGAUGAGGAUCACCCAUCAGAAGGUUGGCUAUUGGGUGGACAUGAGGAUCACCCGUGUUCUUUGGUA (Eterna round: R96, puzzle: Same State NG 1)",,,,50.3,47.5,82.1
"AUAGUUUCCGAAGGAUAUGAUGAGGAUCACCCAUCAGAAGGUUGGCUAUUGGGCGGACAUGAGGAUCACCCAUGUCUUUCUGUU (Eterna round: R96, puzzle: Same State NG 1)",,,,12.7,10.7,18
"AUAUCCUUUUUAUACAUGAGGAUCACCCAUGUUUUUCUUACGUAGGAUAUCGUUGUUUUUUUUUACGAGAAGGACGUAGAAUGU [JR_SSND3_Sub063] (Eterna round: R96, puzzle: Same State NG 3)",,,,,23.5,
"AUAUGAGAAGCAGGAUAUGCGGAGAAGAAAGAAGCAGAAGGGCUUAUGGGACAACAUGAGGAUCACCCAUGUUCUCUGUGAUGA [AK SSNG1-V2-3] (Eterna round: R96, puzzle: Same State NG 1)",,,,24.3,48.9,56.5
"AUAUGAGCUAUGGAGGAUAUCCAUAACAAGACAUGAGGAUCACCCAUGUAAUCAAAACAAUAAUGGGAGAAGGCCAUAGCUCAAU [SS 2 M47] (Eterna round: R96, puzzle: Same State 2)",,,,,46.9,
